In publication PMC4882581, “Characterisation of assembly and ubiquitylation by the RBCC motif of Trim5α” (Scientific Reports, 2016):

B1: RhT5 94–141 (Trim5α Bbox domain alone, residues 94–141) (domain or fragment, Rhesus macaque, UniProt Q0PF16 94-141, looked up)
chain: VDHCARHGEKLLLFCQEDSKVICWLCERSQEHRGHHTFLMEEVAQEYH
notes: Trim5α, Rhesus macaque, Bbox domain, residues 94–141; Cloned into pET47b (N-terminal His-tag) or pET49b (N-terminal GST-tag); purified by IMAC, so the His-tag vector is surmised; also called RhT5α 94–141; Bbox only construct; source: E. coli BL21(DE3), purified (IMAC, 3C cleavage, anion exchange, SEC); not shown: His-tag, N-terminal, cleaved
B2: RhT5 1–261dCC (RhT5 1–261Δ155–228), wild type (domain or fragment, Rhesus macaque)
chain: MASGILLNVKEEVTCPICLELLTEPLSLHCGHSFCQACITANHKKSMLYKEGERSCPVCRISYQPENIQPNRHVANIVEKLREVKLSPEEGQKVDHCARHGEKLLLFCQEDSKVICWLCERSQEHRGHHTFLMEEVAQEYHVKLQTALEMLRQKGGDPYMRELISELEHRLQGSMMDLLQGVDGIIKRIEN
notes: Trim5α, Rhesus macaque, RING, L1, Bbox and start of the coiled-coil, residues 1–154; In a monomer-trimer equilibrium (trimer mass printed 67.8 kDa); also called Wt; source: expressed in LB broth with IPTG; purified (amylose resin, on column 3C protease cleavage, anion exchange); not shown: MBP, C-terminal, cleaved
B3: RhT5 88–261dCC (wild type) (domain or fragment, Rhesus macaque)
chain: PEEGQKVDHCARHGEKLLLFCQEDSKVICWLCERSQEHRGHHTFLMEEVAQEYHVKLQTALEMLRQKGGDPYMRELISELEHRLQGSMMDLLQGVDGIIKRIEN
notes: Trim5α, Rhesus macaque, Bbox-CC, residues Pro88-Lys154; Trim5α, Rhesus macaque, CC-L2, residues Tyr229-Asn261; In a monomer-trimer equilibrium; Vector pET47b or pET49b; IMAC purification, so the His-tag is surmised; also called RhT5 88–216dCC (as printed once); source: E. coli BL21(DE3), purified (IMAC, 3C cleavage, anion exchange, SEC); not shown: His-tag, N-terminal, cleaved

Experiments:
[1] = target: the molecule itself; assay: AUC; sedimentation velocity, c(S) analysis, and isotherm of the weight-averaged S fit to a monomer-trimer model (monomer to trimer, RhT5 1–261dCC); 20 °C; 10 mM Tris/HCl pH 7.8, 150 mM NaCl; 50 krpm (RhT5 94–141, RhT5 88–261dCC) or 38 krpm (RhT5 1–261dCC)
[2] = target: the molecule itself; assay: AUC; multi-speed sedimentation equilibrium; monomer to trimer; three concentrations (0.125, 0.25, 0.5 mg/ml); 14,000, 18,000 and 22,000 rpm; 20 °C; 10 mM Tris/HCl pH 7.8, 150 mM NaCl; fit in SEDPHAT

| Protein | stoichiometry N [1] | stoichiometry N [2] |
| --- | --- | --- |
| B1 | 2 | – |
| B2 | 3 | – |
| B3 | – | 3 |
